Measured values from patent US9605064B2, “Methods and compositions for treatment of skin disorders” (AbbVie Biotechnology Ltd, priority 2006, dated 2017).
“And” between values parts separate entries of the source, which are not always exact repeats. Equal entries are not always repeated.

Legend:
[1] = tested on: patients with moderate to severe chronic plaque psoriasis; experiment: Adverse events, Phase II trial with 48-week extension; settings: for patients with serious adverse events (SAEs): 60-week trial
Description: The study was a randomized, double-blind, placebo-controlled, multi-center clinical trial, wherein patients were randomized to one of three treatment groups. The three treatment groups consisted of the following: • 1. […] Inclusion criteria included a diagnosis of moderate to severe chronic plaque psoriasis≧1 year prior to entry, a psoriasis-affected body surface area (BSA)>5%, and no previous use of TNF-antagonist therapy.
Inclusion criteria for the study included the following parameters: ≧18 years of age; moderate to severe chronic plaque psoriasis≧1 year; and affected BSA≧5%. […] Efficacy outcome measures included PASI and PGA.
Inclusion criteria included patients being 18 years of age; having moderate to severe chronic plaque psoriasis≧1 year; and affected BSA≧5%. Exclusion criteria included prior TNF-antagonist therapy and discontinuation of other systemic psoriasis therapies. Efficacy outcome measures which were used included PASI, PGA, DLQI.
Inclusion criteria included: • ≧18 years of age • Moderate to severe chronic plaque psoriasis 1 year • Affected BSA≧5% Exclusion criteria included: • Prior TNF-antagonist therapy • Discontinuation of other systemic psoriasis therapies Efficacy outcome was measured using PASI and DLQI responses/scores.

hepatitis B virus (HBV) = settings: cited from earlier work
[2] = tested on: patients with moderate to severe psoriasis; experiment: PGA, open-label extension of REVEAL; format: in vivo, human; settings: for PGA “Clear” or “Minimal”: n = 233, ITT, LOCF
Experimental: Laboratory parameters and adverse events were also recorded.

[3] = Week 0-12, 40 mg weekly (N = 50)
[4] = Week 0-60, 40 mg weekly (N = 50)
[5] = Week 0-60, Placebo/Adalimumab 40 mg eow (N = 52)
[6] = Week 12-60, 40 mg weekly (n = 50)
[7] = Week 12-60, Placebo/Adalimumab 40 mg eow + Adalimumab 40 mg eow (n = 92)
[8] = Weeks 0-12, 40 mg weekly (n = 50)
[9] = Weeks 0-12, 40 mg weekly, prior biologic use (n = 9)
[10] = Weeks 12-60, 40 mg weekly (n = 50)
[11] = Weeks 12-60, 40 mg weekly, no prior use (n = 24)
[12] = Weeks 12-60, 40 mg weekly, prior biologic use (n = 7)
[13] = Weeks 12-60, 40 mg weekly, prior systemic use (n = 21)
[14] = Weeks 12-60, Placebo/Adalimumab 40 mg eow + Adalimumab 40 mg eow (n = 92)
[15] = Weeks 12-60, placebo/adalimumab 40 mg eow + adalimumab 40 mg eow, no prior use (n = 47)
[16] = Weeks 12-60, placebo/adalimumab 40 mg eow + adalimumab 40 mg eow, prior biologic use (n = 16)
[17] = Weeks 12-60, placebo/adalimumab 40 mg eow + adalimumab 40 mg eow, prior systemic use (n = 35)
[18] = all patients, Weeks 0-12, 40 mg eow (N = 45)
[19] = all patients, Weeks 0-12, 40 mg weekly (N = 50)
[20] = all patients, Weeks 12-60, 40 mg weekly (n = 50)
[21] = all patients, Weeks 12-60, placebo/adalimumab 40 mg eow + adalimumab 40 mg eow (N = 92)
[22] = baseline PASI ≧10 and DLQI >10, Weeks 0-12, 40 mg eow (N = 26)
[23] = baseline PASI ≧10 and DLQI >10, Weeks 0-12, 40 mg weekly (N = 23)
[24] = baseline PASI ≧10 and DLQI >10, Weeks 12-60, 40 mg weekly (N = 23)
[25] = baseline PASI ≧10 and DLQI >10, Weeks 12-60, placebo/adalimumab 40 mg eow + adalimumab 40 mg eow (N = 41)
[26] = weeks 12-60, 40 mg weekly (N = 50)
[27] = weeks 12-60, placebo/adalimumab 40 mg eow + adalimumab 40 mg eow (N = 92)

Substance: Adalimumab: a human anti-TNF mAb, described in U.S. Pat. No. 6,090,382 as D2E7 (HUMIRA, Abbott Laboratories)
- Withdrawals: Abnormal lab value, number of patients ([1]; Week 0-12, 40 mg eow (N = 45)): 0
- Withdrawals: Adverse events, number of patients ([1]; Week 0-12, 40 mg eow (N = 45)): 2
- Withdrawals: Lack of Efficacy, number of patients ([1]; Week 0-12, 40 mg eow (N = 45)): 0
- Withdrawals: Abnormal lab value, number of patients [1, 3]: 1
- Withdrawals: Adverse events, number of patients [1, 3]: 2
- Withdrawals: Lack of Efficacy, number of patients [1, 3]: 0
- Withdrawals: Abnormal lab value, number of patients ([1]; Week 0-60, 40 mg eow (N = 45)): 0
- Withdrawals: Adverse events, number of patients ([1]; Week 0-60, 40 mg eow (N = 45)): 4
- Withdrawals: Lack of Efficacy, number of patients ([1]; Week 0-60, 40 mg eow (N = 45)): 6
- Withdrawals: Abnormal lab value, number of patients [1, 4]: 1
- Withdrawals: Adverse events, number of patients [1, 4]: 8
- Withdrawals: Lack of Efficacy, number of patients [1, 4]: 4
- Withdrawals: Abnormal lab value, number of patients [1, 5]: 0
- Withdrawals: Adverse events, number of patients [1, 5]: 2
- Withdrawals: Lack of Efficacy, number of patients [1, 5]: 6
- Back pain, number of patients [1, 6]: 4 n
- Back pain, percent of patients [1, 6]: (8.0) %
- Blood creatine phosphokinase increased, number of patients [1, 6]: 2 n
- Blood creatine phosphokinase increased, percent of patients [1, 6]: (4.0) %
- Blood triglycerides increased, number of patients [1, 6]: 2 n
- Blood triglycerides increased, percent of patients [1, 6]: (4.0) %
- Headache, number of patients [1, 6]: 6 n
- Headache, percent of patients [1, 6]: (12.0) %
- Muscle strain, number of patients [1, 6]: 4 n
- Muscle strain, percent of patients [1, 6]: (8.0) %
- Nasopharyngitis, number of patients [1, 6]: 6 n
- Nasopharyngitis, percent of patients [1, 6]: (12.0) %
- Skin papilloma, number of patients [1, 6]: 5 n
- Skin papilloma, percent of patients [1, 6]: (10.0) %
- Upper Respiratory Infection, Not otherwise specified, number of patients [1, 6]: 7 n
- Upper Respiratory Infection, Not otherwise specified, percent of patients [1, 6]: (14.0) %
- Upper Respiratory Infection, Viral not otherwise specified, number of patients [1, 6]: 3 n
- Upper Respiratory Infection, Viral not otherwise specified, percent of patients [1, 6]: (6.0) %
- Urticaria, number of patients [1, 6]: 3 n
- Urticaria, percent of patients [1, 6]: (6.0) %
- Back pain [1, 7]: 4 (4.3) n (%)
- Blood creatine phosphokinase increased [1, 7]: 5 (5.4) n (%)
- Blood triglycerides increased [1, 7]: 7 (7.6) n (%)
- Headache [1, 7]: 3 (3.3) n (%)
- Muscle strain [1, 7]: 1 (1.1) n (%)
- Nasopharyngitis [1, 7]: 13 (14.1) n (%)
- Skin papilloma [1, 7]: 3 (3.3) n (%)
- Upper Respiratory Infection, Viral not otherwise specified [1, 7]: 4 (4.3) n (%)
- Urticaria [1, 7]: 0 (0.0) n (%)
- Adverse Events Leading to Withdrawal ([1]; Weeks 0-12, 40 mg eow (n = 45)): 2 (4.4) n (%)
- Any Adverse Event ([1]; Weeks 0-12, 40 mg eow (n = 45)): 28 (62.2) n (%)
- Serious Adverse Events ([1]; Weeks 0-12, 40 mg eow (n = 45)): 1 (2.2 n (%)
- Adverse Events Leading to Withdrawal [1, 8]: 3 (6.0) n (%)
- Any Adverse Event [1, 8]: 39 (78.0) n (%)
- Serious Adverse Events [1, 8]: 4 (8.0) n (%)
- AE's→Withdrawal [1, 9]: 2 (22) n (%)
- Any AE [1, 9]: 6 (67) n (%)
- Serious AE [1, 9]: 2 (22) n (%)
- Adverse Events Leading to Withdrawal [1, 10]: 5 (10.0) n (%)
- Any Adverse Event [1, 10]: 39 (78.0) n (%)
- Serious Adverse Events [1, 10]: 7 (14.0) n (%)
- AE's→Withdrawal [1, 11]: (8) %
- AE's→Withdrawal, number of patients [1, 11]: 2
- Any AE [1, 11]: (79) %
- Any AE, number of patients [1, 11]: 19
- Serious AE [1, 11]: (17) %
- Serious AE, number of patients [1, 11]: 4
- AE's→Withdrawal [1, 12]: (0) %
- AE's→Withdrawal, number of patients [1, 12]: 0
- Any AE [1, 12]: (86) %
- Any AE, number of patients [1, 12]: 6
- Serious AE [1, 12]: (0) %
- Serious AE, number of patients [1, 12]: 0
- AE's→Withdrawal [1, 13]: (14) %
- AE's→Withdrawal, number of patients [1, 13]: 3
- Any AE [1, 13]: (81) %
- Any AE, number of patients [1, 13]: 17
- Serious AE [1, 13]: (10) %
- Serious AE, number of patients [1, 13]: 2
- Adverse Events Leading to Withdrawal [1, 14]: 3 (3.3) n (%)
- Any Adverse Event [1, 14]: 72 (78.3) n (%)
- Serious Adverse Events [1, 14]: 2 (2.2) n (%)
- AE's→Withdrawal [1, 15]: (2) %
- AE's→Withdrawal, number of patients [1, 15]: 1
- Any AE [1, 15]: (79) %
- Any AE, number of patients [1, 15]: 37
- Serious AE [1, 15]: (0) %
- Serious AE, number of patients [1, 15]: 0
- AE's→Withdrawal [1, 16]: (6) %
- AE's→Withdrawal, number of patients [1, 16]: 1
- Any AE [1, 16]: (75) %
- Any AE, number of patients [1, 16]: 12
- Serious AE [1, 16]: (13) %
- Serious AE, number of patients [1, 16]: 2
- AE's→Withdrawal [1, 17]: (6) %
- AE's→Withdrawal, number of patients [1, 17]: 2
- Any AE [1, 17]: (80) %
- Any AE, number of patients [1, 17]: 28
- Serious AE [1, 17]: (6) %
- Serious AE, number of patients [1, 17]: 2
- patients who withdrew due to adverse events ([1]; Weeks 12-60, range across treatment groups): 3-10%
- AEs leading to withdrawal [1, 18]: 2 (4) n (%) and 2 (4.4) n (%)
- Any AE [1, 18]: 28 (62) n (%) and 28 (62.2) n (%)
- Serious AEs [1, 18]: 1 (2) n (%) and 1 (2.2) n (%)
- AEs leading to withdrawal [1, 19]: 3 (6) n (%)
- Any AE [1, 19]: 39 (78) n (%)
- Serious AEs [1, 19]: 4 (8) n (%)
- AEs leading to withdrawal [1, 20]: 5 (10) n (%)
- Any AE [1, 20]: 39 (78) n (%)
- Serious AEs [1, 20]: 7 (14) n (%)
- AEs leading to withdrawal [1, 21]: 3 (3) n (%) and 3 (3.3) n (%)
- Any AE [1, 21]: 72 (78) n (%) and 72 (87.3) n (%)
- Serious AEs [1, 21]: 2 (2) n (%) and 2 (2.2) n (%)
- AEs leading to withdrawal [1, 22]: 0 (0) n (%)
- Any AE [1, 22]: 16 (62) n (%)
- Serious AEs [1, 22]: 0 (0) n (%)
- AEs leading to withdrawal [1, 23]: 1 (4) n (%)
- Any AE [1, 23]: 19 (83) n (%)
- Serious AEs [1, 23]: 2 (9) n (%)
- AEs leading to withdrawal [1, 24]: 0 (0) n (%)
- Any AE [1, 24]: 11 (48) n (%)
- Serious AEs [1, 24]: 0 (0) n (%)
- AEs leading to withdrawal [1, 25]: 2 (5) n (%)
- Any AE [1, 25]: 23 (56) n (%)
- Serious AEs [1, 25]: 1 (2) n (%)
- Serious Adverse Events ([1]; dosage escalation group): no serious adverse events were observed
- withdrew from the study due to adverse events ([1]; dosage escalation group): two others
- Serious Adverse Events ([1]; dosage escalation group, listed as adalimumab): One patient
- patients who had adverse events ([1]; patients with PASI 75-99 and DLQI=0): 80%
- patients who had adverse events ([1]; patients with PASI 75-99 and DLQI>0): 91%
- patients who had adverse events ([1]; patients with PASI 100 and DLQI=0): 91%
- patients who had adverse events ([1]; patients with PASI 100 and DLQI>0): 50%
- patients with serious adverse events (SAEs) ([1]; prior-biologic patients): 4 patients
- patients with serious adverse events (SAEs) ([1]; prior-systemic patients): 7 patients
- Back pain, number of patients [1, 26]: 4
- Back pain, percentage (in parentheses) [1, 26]: (8.0)
- Blood CPK increased, number of patients [1, 26]: 2
- Blood CPK increased, percentage (in parentheses) [1, 26]: (4.0)
- Blood TG increased, number of patients [1, 26]: 2
- Blood TG increased, percentage (in parentheses) [1, 26]: (4.0)
- Headache, number of patients [1, 26]: 6
- Headache, percentage (in parentheses) [1, 26]: (12.0)
- Muscle strain, number of patients [1, 26]: 4
- Muscle strain, percentage (in parentheses) [1, 26]: (8.0)
- Nasopharyngitis, number of patients [1, 26]: 6
- Nasopharyngitis, percentage (in parentheses) [1, 26]: (12.0)
- Skin papilloma, number of patients [1, 26]: 5
- Skin papilloma, percentage (in parentheses) [1, 26]: (10.0)
- URI, NOS, number of patients [1, 26]: 7
- URI, NOS, percentage (in parentheses) [1, 26]: (14.0)
- URI, viral NOS, number of patients [1, 26]: 3
- URI, viral NOS, percentage (in parentheses) [1, 26]: (6.0)
- Urticari, number of patients [1, 26]: 3
- Urticari, percentage (in parentheses) [1, 26]: (6.0)
- Back pain, number (percentage in parentheses) [1, 27]: 4 (4.3)
- Blood CPK increased, number (percentage in parentheses) [1, 27]: 5 (5.4)
- Blood TG increased, number (percentage in parentheses) [1, 27]: 7 (7.6)
- Headache, number (percentage in parentheses) [1, 27]: 3 (3.3)
- Muscle strain, number (percentage in parentheses) [1, 27]: 1 (1.1)
- Nasopharyngitis, number (percentage in parentheses) [1, 27]: 13 (14.1)
- Skin papilloma, number (percentage in parentheses) [1, 27]: 3 (3.3)
- URI, NOS, number (percentage in parentheses) [1, 27]: 9 (9.8)
- URI, viral NOS, number (percentage in parentheses) [1, 27]: 4 (4.3)
- Urticari, number (percentage in parentheses) [1, 27]: 0 (0.0)
- patients with serious adverse events (SAEs) ([1]; without recent prior systemic or biologic therapy): 5 patients
- reactivation of hepatitis B virus (HBV) (hepatitis B virus (HBV)): associated with reactivation of hepatitis B virus (HBV)
- PGA scores of “clear” or “minimal ([2]; OLE of REVEAL): 74%
- PGA “Clear” or “Minimal” ([2]; Week 0 of OLE): 70%
- PGA “Clear” or “Minimal” ([2]; Week 12 of OLE): 71%
- PGA “Clear” or “Minimal” ([2]; Week 24 of OLE): 74%
